Settings in all cases: tags: SV40 NLS; chain copies: 2
Data set [1] has as its target T1, Cas-alpha 10 A40G+E81G (Syntrophomonas palmitatica, UniProt P0DW62 SEQ:1-497).
T1 chain: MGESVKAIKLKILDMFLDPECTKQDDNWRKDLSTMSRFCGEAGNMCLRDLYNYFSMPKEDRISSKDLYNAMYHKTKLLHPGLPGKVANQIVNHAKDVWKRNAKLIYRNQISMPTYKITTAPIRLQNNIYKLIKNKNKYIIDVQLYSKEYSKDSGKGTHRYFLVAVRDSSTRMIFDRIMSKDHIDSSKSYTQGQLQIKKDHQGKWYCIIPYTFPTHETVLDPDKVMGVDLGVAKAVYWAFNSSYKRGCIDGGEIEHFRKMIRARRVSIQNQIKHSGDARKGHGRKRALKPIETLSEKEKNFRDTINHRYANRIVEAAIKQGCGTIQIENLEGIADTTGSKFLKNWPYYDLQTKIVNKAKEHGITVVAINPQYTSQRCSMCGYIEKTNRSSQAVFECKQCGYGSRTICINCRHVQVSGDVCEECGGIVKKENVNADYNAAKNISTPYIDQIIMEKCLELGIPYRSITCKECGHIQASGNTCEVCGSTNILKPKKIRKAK
Kind of data set: cell_activity; PAM 5'-TTC; yeast, 45 C; >10-fold sectored colonies at 37 C. The protocol:
The cells were then resuspended in 1 ml of EZ 2 solution and aliquoted and either stored at −70° C. or used in the next step. Transformation was performed next by adding 0.5-1 μg (in less than 5 μl) of 2 micron yeast plasmid DNA to 50 μl of competent cells. Optionally, double-stranded DNA repair template with homology flanking the expected Cas-alpha double-strand break site was also included (0.5 μl at 50 μM). After gently mixing in the DNA, 500 μl of EZ 3 solution was added. Next, cells were incubated at 30° C. for 60-90 min. flicking or vortexing the cells 3-4 times over the duration of the incubation. After transformation, cells were grown-out in YPD broth for ˜3 hours, pelleted, washed once with 1 ml of sterile water, resuspended in 1 ml of sterile water, and then ˜200 μl plated onto selective media (for example but not limited to 6.7 g/L yeast nitrogen base without amino acids (Becton Dickinson), 20 g/L glucose (Phytotechnology Labs), 1.92 g/L yeast histidine dropout media (MP Biomedicals) and 20 g/L Bacto Agar (Becton Dickinson)). To determine the culture conditions optimal for activity, cells were incubated at 30° C. until colonies formed, or at a range of temperatures (typically 37° C. and 45° C.) overnight and then placed back at 30° C. until colony growth was visible. […]

The target in data set [2] is T2, Cas-alpha 10 E81G (Syntrophomonas palmitatica, UniProt P0DW62 SEQ:1-497).
T2 chain: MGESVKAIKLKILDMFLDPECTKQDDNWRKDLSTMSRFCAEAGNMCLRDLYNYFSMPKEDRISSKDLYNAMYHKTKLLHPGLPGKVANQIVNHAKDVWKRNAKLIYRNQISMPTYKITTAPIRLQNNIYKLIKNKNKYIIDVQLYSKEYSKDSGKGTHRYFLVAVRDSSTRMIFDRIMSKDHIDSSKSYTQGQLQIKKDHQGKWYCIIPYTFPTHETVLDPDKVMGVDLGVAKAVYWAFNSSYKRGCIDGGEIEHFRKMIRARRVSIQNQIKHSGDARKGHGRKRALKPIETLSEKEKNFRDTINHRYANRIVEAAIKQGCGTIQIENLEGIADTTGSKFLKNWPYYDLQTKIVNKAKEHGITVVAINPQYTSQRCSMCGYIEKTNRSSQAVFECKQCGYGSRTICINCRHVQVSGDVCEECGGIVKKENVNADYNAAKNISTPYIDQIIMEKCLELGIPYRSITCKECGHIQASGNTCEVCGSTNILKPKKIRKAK
Kind of data set: cell_activity; PAM 5'-TTC; yeast, 45 C.

For data set [3], the target named is T3, Cas-alpha 10 A40G (Syntrophomonas palmitatica, UniProt P0DW62 SEQ:1-497).
T3 chain: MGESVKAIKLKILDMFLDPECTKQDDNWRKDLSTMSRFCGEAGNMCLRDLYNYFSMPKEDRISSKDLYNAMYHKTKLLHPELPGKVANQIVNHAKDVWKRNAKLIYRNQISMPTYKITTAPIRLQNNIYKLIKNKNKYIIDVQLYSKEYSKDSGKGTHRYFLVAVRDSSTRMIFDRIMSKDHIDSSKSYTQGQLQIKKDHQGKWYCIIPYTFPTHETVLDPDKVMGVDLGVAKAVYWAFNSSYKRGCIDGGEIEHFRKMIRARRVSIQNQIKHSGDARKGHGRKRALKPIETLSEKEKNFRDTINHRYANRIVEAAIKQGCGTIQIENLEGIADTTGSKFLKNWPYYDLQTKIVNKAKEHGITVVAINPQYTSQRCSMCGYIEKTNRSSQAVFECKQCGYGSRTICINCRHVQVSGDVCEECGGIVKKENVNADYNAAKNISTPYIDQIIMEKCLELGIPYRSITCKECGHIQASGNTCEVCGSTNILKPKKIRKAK
Kind of data set: cell_activity; PAM 5'-TTC; yeast, 45 C.

The target in data set [4] is T1, Cas-alpha 10 A40G+E81G. As to the kind of experiment: cell_activity; PAM 5'-TTC; maize, 37 C.
The target in data set [5] is T4, Cas-alpha 10 A40G+E81G+T335R (Syntrophomonas palmitatica, UniProt P0DW62 SEQ:1-497).
T4 chain: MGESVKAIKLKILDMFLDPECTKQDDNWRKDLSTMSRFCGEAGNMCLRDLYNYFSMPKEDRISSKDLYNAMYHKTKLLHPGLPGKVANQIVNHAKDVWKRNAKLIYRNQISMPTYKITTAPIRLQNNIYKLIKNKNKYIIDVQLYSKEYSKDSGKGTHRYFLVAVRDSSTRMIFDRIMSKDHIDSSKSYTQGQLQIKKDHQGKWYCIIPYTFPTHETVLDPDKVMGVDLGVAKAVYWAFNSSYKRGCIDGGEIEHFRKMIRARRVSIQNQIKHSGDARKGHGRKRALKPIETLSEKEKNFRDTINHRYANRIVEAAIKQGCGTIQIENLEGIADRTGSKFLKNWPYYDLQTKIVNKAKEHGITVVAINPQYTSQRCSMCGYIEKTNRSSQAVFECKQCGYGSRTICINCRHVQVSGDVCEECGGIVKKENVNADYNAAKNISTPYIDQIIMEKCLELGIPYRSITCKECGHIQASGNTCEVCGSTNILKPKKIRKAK
As to the kind of experiment: cell_activity; PAM 5'-TTC; maize, 37 C.

B1: sgRNA1, ade2 target 2, 20 nt spacer ; ade2 target 2 (ssRNA ; dsDNA)
RNA: AUUUACUCUGUUUCGCGCGCCAGGGCAGUUAGGUGCCCUAAAAGAGCGAAGUGGCCGAAAGGAAAGGCUAACGCUUCUCUAACGCUACGGCGACCUUGGCGAAAUGCCAUCAAUACCACGCGGCCCGAAAGGGUUCGCGCGAAACUGAGUAAUGAAAGUCGCAUCUUGCGUAAGCGCGUGGAUUGAAACUUUAGUGUAGGAACAUCAAC
DNA 1: TTTAGTGTAGGAACATCAAC
DNA 2: GTTGATGTTCCTACACTAAA
As to B1, the binding signal in data set [1] is ~3 fold vs wild type (red colonies, score 2); in data set [2] it was ~2 fold vs wild type (red colonies, score 2); in data set [3] it was ~2 fold vs wild type (red colonies, score 2).

B2: sgRNA IR ; IR target (ssRNA ; dsDNA)
RNA: AUUUACUCUGUUUCGCGCGCCAGGGCAGUUAGGUGCCCUAAAAGAGCGAAGUGGCCGAAAGGAAAGGCUAACGCUUCUCUAACGCUACGGCGACCUUGGCGAAAUGCCAUCAAUACCACGCGGCCCGAAAGGGUUCGCGCGAAACUGAGUAAUGAAAGUCGCAUCUUGCGUAAGCGCGUGGAUUGAAACCACAGGGAGGGAGCAAACAA
DNA 1: CACAGGGAGGGAGCAAACAA
DNA 2: TTGTTTGCTCCCTCCCTGTG
In the case of B2, the binding signal in data set [4] was approximately 5 fold vs wild type indels; in data set [5] it was approximately 17 fold vs wild type indels.

These data come from US20230392135, “ENGINEERED CAS ENDONUCLEASE VARIANTS FOR IMPROVED GENOME EDITING” (PIONEER HI-BRED INTERNATIONAL, INC., published 2023).
